Experiments:
LILRB3 on reporter cells = molecular target: T1, LILRB3 on reporter cells (UniProt O75022 24-631, limits assumed); assay: flow cytometry on LILR reporter cells, 0.5 µg/mL rabbit B1-176, anti-rabbit IgG PE
T1 construct: whole, on cells

LILRA2 on reporter cells [1] = molecular target: T2, LILRA2 on reporter cells (UniProt Q8N149 24-483); assay: as above
T2 construct: whole, on cells

LILRA6 on reporter cells = molecular target: T3, LILRA6 on reporter cells (UniProt Q6PI73 24-481); assay: as above
T3 construct: whole, on cells

LILRA1 on reporter cells [2] = molecular target: T4, LILRA1 on reporter cells (UniProt O75019 17-489, limits assumed); assay: as above
T4 construct: whole, on cells

LILRB5 on reporter cells = molecular target: T5, LILRB5 on reporter cells (UniProt O75023 24-590, limits assumed); assay: as above
T5 construct: whole, on cells

LILRA5 on reporter cells = molecular target: T6, LILRA5 on reporter cells (UniProt A6NI73 42-299); assay: as above
T6 construct: whole, on cells

[3] = molecular target: T7, LILRB1 expressed on cell surface (human, UniProt Q8NHL6 24-650); assay: as above
T7 construct: One entry is used for LILRB1 on reporter cells and on NK cells; also called LILRB1 NFAT-GFP reporter cell; LILRB1 reporter cells

LILRB4 on reporter cells = molecular target: T8, LILRB4 on reporter cells (UniProt Q8NHJ6 22-448); assay: as above
T8 construct: whole, on cells

LILRB2 on reporter cells = molecular target: T9, LILRB2 on reporter cells (UniProt Q8N423 22-597); assay: as above
T9 construct: whole, on cells; The construct is not described

LILRA4 on reporter cells = molecular target: T10, LILRA4 on reporter cells (UniProt P59901 24-499); assay: as above
T10 construct: whole, on cells

LILRA3 on reporter cells = molecular target: T11, LILRA3 on reporter cells (UniProt Q8N6C8 24-439); assay: as above
T11 construct: whole, on cells

[4] = molecular target: T12, recombinant human LILRB1 protein (human, UniProt Q8NHL6 24-461); assay: Octet RED96 (BLI), antibody on protein G biosensors, recombinant LILRB1 in solution, FIG. 2E (not Table 14)
T12 construct: ELISA and Octet methods say only 'recombinant LILRB1'; also called recombinant LILRB1; LILRB1 recombinant proteins

LILRA2 on reporter cells [5] = molecular target: T2, LILRA2 on reporter cells; assay: flow cytometry on LILR reporter cells, anti-rabbit IgG PE
LILRA1 on reporter cells [6] = molecular target: T4, LILRA1 on reporter cells; assay: as above
D234SR-Fc = molecular target: T13, D234SR-Fc (human, UniProt Q8NHL6); assay: ELISA on LILRB1 domain-Fc fusion proteins
T13 construct: D2-D4 and stalk region

SR-Fc = molecular target: T14, SR-Fc (human, UniProt Q8NHL6); assay: ELISA on LILRB1 domain-Fc fusion proteins
T14 construct: stalk region

D2-Fc = molecular target: T15, D2-Fc (human, UniProt Q8NHL6); assay: ELISA on LILRB1 domain-Fc fusion proteins
T15 construct: D2 domain; also called LILRB1 D2-Fc

D4SR-Fc = molecular target: T16, D4SR-Fc (human, UniProt Q8NHL6); assay: ELISA on LILRB1 domain-Fc fusion proteins
T16 construct: D4 and stalk region

D34SR-Fc = molecular target: T17, D34SR-Fc (human, UniProt Q8NHL6); assay: ELISA on LILRB1 domain-Fc fusion proteins
T17 construct: D3-D4 and stalk region

D1-Fc = molecular target: T18, D1-Fc (human, UniProt Q8NHL6); assay: ELISA on LILRB1 domain-Fc fusion proteins
T18 construct: D1 domain; also called LILRB1 D1-Fc

D23-Fc = molecular target: T19, D23-Fc (human, UniProt Q8NHL6); assay: ELISA on LILRB1 domain-Fc fusion proteins
T19 construct: D2-D3

D3-Fc = molecular target: T20, D3-Fc (human, UniProt Q8NHL6); assay: ELISA on LILRB1 domain-Fc fusion proteins
T20 construct: D3 domain; also called LILRB1 D3-Fc

[7] = molecular target: T12, recombinant human LILRB1 protein; assay: Octet RED96, LILRB1 at 100, 33.3, 11.1 and 3.7 nM
LILRA2 = molecular target: T21, LILRA2 (human, UniProt Q8N149); assay: ELISA
T21 construct: not the cell-surface form of MOLECULES; also called LILRA2 protein of the ELISA and Octet specificity tests

LILRB4 = molecular target: T22, LILRB4 (human, UniProt Q8NHJ6); assay: ELISA
T22 construct: not the cell-surface form of MOLECULES; also called LILRB4 protein of the ELISA and Octet specificity tests

LILRA4 = molecular target: T23, LILRA4 (human, UniProt P59901); assay: ELISA
T23 construct: not the cell-surface form of MOLECULES; also called LILRA4 protein of the ELISA and Octet specificity tests

LILRA3 = molecular target: T24, LILRA3 (human, UniProt Q8N6C8); assay: ELISA
T24 construct: not the cell-surface form of MOLECULES; also called LILRA3 protein of the ELISA and Octet specificity tests
T24 sequence (Q8N6C8 24-439 limits assumed): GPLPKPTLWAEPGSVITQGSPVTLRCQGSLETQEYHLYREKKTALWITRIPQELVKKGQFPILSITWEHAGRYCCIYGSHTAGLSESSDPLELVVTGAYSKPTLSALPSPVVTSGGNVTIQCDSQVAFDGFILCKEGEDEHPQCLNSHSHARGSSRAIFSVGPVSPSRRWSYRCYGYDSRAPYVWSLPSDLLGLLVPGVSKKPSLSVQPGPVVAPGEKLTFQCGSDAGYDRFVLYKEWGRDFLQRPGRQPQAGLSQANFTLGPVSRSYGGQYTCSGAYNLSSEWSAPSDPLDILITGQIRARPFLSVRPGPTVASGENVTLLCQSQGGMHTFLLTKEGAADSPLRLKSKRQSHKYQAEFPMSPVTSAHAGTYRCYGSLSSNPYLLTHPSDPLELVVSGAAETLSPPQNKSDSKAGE

T12 sequence (Q8NHL6 24-461 limits assumed): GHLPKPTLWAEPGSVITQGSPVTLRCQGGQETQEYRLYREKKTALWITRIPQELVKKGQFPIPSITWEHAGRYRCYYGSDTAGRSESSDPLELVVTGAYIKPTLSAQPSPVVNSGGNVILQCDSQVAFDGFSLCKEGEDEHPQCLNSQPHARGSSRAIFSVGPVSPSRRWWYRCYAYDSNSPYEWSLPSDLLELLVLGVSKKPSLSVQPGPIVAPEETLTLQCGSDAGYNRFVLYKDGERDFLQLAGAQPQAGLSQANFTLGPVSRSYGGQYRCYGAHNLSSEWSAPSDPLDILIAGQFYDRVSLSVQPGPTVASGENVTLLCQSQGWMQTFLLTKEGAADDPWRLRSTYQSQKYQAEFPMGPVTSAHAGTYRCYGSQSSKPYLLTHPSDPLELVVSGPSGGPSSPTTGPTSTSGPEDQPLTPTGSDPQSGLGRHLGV
T4 sequence (O75019 17-489 limits assumed): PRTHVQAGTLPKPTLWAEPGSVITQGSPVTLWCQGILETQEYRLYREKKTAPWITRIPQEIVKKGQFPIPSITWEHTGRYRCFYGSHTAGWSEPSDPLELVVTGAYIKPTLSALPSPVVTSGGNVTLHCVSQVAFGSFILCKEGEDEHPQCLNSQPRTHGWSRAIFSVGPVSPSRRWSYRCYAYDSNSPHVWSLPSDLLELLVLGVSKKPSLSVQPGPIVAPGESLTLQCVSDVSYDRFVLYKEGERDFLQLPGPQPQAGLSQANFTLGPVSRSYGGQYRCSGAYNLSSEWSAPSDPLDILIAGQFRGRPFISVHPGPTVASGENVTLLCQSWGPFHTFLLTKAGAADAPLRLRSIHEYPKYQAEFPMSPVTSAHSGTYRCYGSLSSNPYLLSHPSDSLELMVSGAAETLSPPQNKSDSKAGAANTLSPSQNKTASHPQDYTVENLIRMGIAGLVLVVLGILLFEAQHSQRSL
T2 sequence (Q8N149 24-483): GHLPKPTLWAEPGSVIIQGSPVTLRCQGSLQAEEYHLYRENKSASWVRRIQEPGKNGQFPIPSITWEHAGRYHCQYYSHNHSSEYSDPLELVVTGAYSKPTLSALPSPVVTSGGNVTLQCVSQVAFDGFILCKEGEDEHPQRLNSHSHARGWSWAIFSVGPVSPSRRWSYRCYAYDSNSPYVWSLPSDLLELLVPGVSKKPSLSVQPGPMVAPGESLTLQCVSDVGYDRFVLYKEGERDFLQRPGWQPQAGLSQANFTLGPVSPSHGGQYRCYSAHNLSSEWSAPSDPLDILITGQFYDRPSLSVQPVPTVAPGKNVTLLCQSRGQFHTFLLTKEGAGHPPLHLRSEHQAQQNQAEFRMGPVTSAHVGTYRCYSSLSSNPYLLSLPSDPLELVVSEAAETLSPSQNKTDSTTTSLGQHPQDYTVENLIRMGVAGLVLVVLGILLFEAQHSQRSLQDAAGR
T16 sequence (Q8NHL6 313-461 limits assumed): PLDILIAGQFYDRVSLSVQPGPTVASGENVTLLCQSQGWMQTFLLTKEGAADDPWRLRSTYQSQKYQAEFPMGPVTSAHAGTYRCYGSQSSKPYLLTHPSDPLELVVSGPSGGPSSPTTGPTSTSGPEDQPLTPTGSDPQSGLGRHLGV
T11 sequence (Q8N6C8 24-439): as the sequence (Q8N6C8 24-439 limits assumed) above
T14 sequence (Q8NHL6 410-461 limits assumed): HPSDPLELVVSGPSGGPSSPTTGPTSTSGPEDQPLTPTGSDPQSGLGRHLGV
T9 sequence (Q8N423 22-597): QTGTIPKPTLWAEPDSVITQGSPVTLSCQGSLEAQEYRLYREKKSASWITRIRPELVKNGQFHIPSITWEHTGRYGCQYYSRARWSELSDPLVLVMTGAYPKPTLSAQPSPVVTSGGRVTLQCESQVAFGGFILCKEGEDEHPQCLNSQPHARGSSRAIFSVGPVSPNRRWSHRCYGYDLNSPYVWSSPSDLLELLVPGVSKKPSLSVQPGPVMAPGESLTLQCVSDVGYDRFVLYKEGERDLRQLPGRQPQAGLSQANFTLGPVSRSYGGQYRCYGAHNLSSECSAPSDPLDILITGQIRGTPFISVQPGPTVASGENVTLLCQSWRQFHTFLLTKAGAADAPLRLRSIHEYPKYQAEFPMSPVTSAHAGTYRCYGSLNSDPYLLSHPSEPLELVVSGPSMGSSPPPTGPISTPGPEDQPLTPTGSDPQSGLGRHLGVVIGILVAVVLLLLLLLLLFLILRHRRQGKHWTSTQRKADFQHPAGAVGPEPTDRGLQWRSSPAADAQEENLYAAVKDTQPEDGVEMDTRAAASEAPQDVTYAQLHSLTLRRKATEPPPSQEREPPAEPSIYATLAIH
T19 sequence (Q8NHL6 116-312 limits assumed): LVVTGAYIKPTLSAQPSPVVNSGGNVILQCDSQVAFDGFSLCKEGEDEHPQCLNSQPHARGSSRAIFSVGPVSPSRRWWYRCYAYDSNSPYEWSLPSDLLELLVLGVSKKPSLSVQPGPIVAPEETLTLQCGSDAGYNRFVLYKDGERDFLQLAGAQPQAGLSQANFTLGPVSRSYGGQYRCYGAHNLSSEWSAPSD
T5 sequence (O75023 24-590 limits assumed): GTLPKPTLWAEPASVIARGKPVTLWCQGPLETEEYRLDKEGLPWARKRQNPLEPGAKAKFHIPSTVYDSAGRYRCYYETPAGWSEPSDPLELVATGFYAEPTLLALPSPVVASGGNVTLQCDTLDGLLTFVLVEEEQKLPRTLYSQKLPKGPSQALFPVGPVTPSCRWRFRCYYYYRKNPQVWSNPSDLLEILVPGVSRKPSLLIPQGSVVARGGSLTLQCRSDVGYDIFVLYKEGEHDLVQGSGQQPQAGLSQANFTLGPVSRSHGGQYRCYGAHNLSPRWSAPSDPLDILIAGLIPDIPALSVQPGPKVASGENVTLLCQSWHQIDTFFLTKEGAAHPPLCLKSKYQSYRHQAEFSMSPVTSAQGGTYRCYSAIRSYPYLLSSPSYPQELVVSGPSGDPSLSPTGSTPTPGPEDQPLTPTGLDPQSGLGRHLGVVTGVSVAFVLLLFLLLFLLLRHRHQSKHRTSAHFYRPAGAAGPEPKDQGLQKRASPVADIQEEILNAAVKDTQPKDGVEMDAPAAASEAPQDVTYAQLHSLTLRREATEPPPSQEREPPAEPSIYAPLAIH
T7 sequence (Q8NHL6 24-650 limits assumed): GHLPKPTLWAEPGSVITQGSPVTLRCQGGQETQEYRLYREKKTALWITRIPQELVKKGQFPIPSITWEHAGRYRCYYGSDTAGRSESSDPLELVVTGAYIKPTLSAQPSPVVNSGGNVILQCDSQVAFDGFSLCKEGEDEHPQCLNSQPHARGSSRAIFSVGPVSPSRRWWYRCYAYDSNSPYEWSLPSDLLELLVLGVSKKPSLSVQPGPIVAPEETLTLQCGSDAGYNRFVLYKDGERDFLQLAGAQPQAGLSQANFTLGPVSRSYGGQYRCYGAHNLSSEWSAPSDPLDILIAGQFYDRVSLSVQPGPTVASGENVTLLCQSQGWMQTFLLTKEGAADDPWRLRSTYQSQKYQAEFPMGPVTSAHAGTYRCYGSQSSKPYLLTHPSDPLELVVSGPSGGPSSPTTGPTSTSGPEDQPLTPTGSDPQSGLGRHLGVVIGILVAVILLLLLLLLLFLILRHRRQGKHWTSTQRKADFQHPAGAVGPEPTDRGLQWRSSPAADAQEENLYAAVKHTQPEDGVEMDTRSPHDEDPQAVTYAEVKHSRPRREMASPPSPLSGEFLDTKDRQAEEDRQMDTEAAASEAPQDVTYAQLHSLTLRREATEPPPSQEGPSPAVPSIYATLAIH
T10 sequence (P59901 24-499): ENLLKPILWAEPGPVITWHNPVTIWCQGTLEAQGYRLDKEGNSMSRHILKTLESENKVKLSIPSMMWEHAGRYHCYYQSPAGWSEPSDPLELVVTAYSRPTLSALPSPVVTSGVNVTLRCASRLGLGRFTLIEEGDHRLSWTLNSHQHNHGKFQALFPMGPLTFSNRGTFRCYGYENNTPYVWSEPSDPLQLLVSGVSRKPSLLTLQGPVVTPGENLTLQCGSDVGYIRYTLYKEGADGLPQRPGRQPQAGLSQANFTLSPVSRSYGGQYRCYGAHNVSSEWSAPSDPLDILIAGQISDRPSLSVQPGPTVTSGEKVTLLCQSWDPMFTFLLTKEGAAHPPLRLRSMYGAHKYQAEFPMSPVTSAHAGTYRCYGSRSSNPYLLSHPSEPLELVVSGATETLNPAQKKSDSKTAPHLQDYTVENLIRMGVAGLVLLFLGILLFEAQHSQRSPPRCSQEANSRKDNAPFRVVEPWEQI
T18 sequence (Q8NHL6 27-115 limits assumed): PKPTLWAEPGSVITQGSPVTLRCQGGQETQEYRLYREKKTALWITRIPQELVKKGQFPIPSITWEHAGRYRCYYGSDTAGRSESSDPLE
T6 sequence (A6NI73 42-299): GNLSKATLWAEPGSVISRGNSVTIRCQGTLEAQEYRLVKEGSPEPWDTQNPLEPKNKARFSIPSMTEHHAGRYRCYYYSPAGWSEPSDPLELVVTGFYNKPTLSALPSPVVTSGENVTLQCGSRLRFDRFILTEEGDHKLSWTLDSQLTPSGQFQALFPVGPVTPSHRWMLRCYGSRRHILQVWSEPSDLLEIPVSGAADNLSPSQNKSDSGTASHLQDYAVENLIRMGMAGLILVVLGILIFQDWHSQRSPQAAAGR

percent of cells in the gate (LILRB3 on reporter cells): 0.07%
percent of cells in the gate (LILRA2 on reporter cells [1]): 0.11%
percent of cells in the gate (LILRA6 on reporter cells): 0.12%
percent of cells in the gate (LILRA1 on reporter cells [2]): 0.12%
percent of cells in the gate (LILRB5 on reporter cells): 0.29%
percent of cells in the gate (LILRA5 on reporter cells): 0.1%
percent of cells in the gate [3]: 99%
percent of cells in the gate (LILRB4 on reporter cells): 0.18%
percent of cells in the gate (LILRB2 on reporter cells): 0.68%
percent of cells in the gate (LILRA4 on reporter cells): 0.074%
percent of cells in the gate (LILRA3 on reporter cells): 0.1%
Kd [4]: ~0.01 nM
binding result (LILRA2 on reporter cells [5]): no binding (tested: 0.5 µg/mL)
binding result (LILRA1 on reporter cells [6]): no binding (tested: 0.5 µg/mL)
binding result (D234SR-Fc): no binding (tested: not given)
binding result (SR-Fc): no binding (tested: not given)
binding result (D2-Fc): no binding (tested: not given)
binding result (D4SR-Fc): no binding (tested: not given)
binding result (D34SR-Fc): no binding (tested: not given)
binding result (D1-Fc): no binding (tested: not given)
binding result (D23-Fc): no binding (tested: not given)
binding result (D3-Fc): no binding (tested: not given)
Kd [7]: < 0.01 nM
B1: B1-176 rabbit antibody (antibody, V domains shown)
VH: QSLEESEGGLVKPGGTLTLTCTASGFSFSSSYCMCWVRQAPGKGLELIACIYTDSSGATYYASWAKGRFTISKSSSTTITLQMTSLTAADTATYFCARGWDYEDPGYTDTTYFSLWGPGTLVTVSS
VL: ELDLTQTPSSVEAAVGGTVTIKCQASQTIYTNLAWYQQKPGQPPNLLIYAASTLASGVSSRFKGSGSGTEFTLTISDLECADAATYYCQSYYGSSTTGNGFGGGTEVEIK
notes: Full-length rabbit IgG, kappa; Variable genes were cloned into a rabbit IgG expression vector and expressed in Expi293F cells
binding result (LILRA2): no binding (tested: 10^3.0 ng/mL (1000 ng/mL))
binding result (LILRB4): no binding (tested: 10^3.0 ng/mL (1000 ng/mL))
binding result (LILRA4): no binding (tested: 10^3.0 ng/mL (1000 ng/mL))
binding result (LILRA3): no binding (tested: 10^3.0 ng/mL (1000 ng/mL))

— patent US12723078 (University of Texas, dated 2026)
